Test results from patent US20230287094A1 (LUDWIG INSTITUTE FOR CANCER RESEARCH, published 2023).
Where a chain is given by its changes, count along the chain named. Blank lines part the entries; values can stand above or below the binder they belong to.

Experiments:
human TGF-β3 = molecular target: T1, human TGF-β3 (human, UniProt P10600 301-412); assay: cell-based or functional assay
T1 sequence: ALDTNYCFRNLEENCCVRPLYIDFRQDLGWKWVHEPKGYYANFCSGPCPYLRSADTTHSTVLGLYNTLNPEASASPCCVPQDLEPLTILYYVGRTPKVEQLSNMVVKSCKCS

human TGF-β1 = human TGF-β1 (human, UniProt P01137 279-390); assay: cell-based or functional assay
human TGF-β1, sequence (P01137 279-390 limits assumed): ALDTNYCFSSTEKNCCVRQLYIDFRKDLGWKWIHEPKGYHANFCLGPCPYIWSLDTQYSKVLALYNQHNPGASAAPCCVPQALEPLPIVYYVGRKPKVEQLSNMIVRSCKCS

human TGF-β2 [1] = molecular target: T2, human TGF-β2 (human, UniProt P61812 303-414); assay: assay not named
T2 construct: also called TGF-ß2
T2 sequence (looked up): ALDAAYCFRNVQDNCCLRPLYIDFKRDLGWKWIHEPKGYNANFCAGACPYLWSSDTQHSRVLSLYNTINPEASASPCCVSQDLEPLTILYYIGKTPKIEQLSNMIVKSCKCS
Experimental: Mink lung epithelial cell line (TMLECs) were stably transfected with a truncated PAI-1 promoter fused to the firefly luciferase reporter gene. 500 pg/ml human TGF-ß3 was incubated with serial dilutions of isolated TGF-β3 antibody for 4 h at 37° C. before transfer to an equal volume of culture medium (DMEM + 10 % FCS) where 50,000 TMLEC cells had been seeded 1 - 4 h earlier. After a further 24 h incubation, luciferase activity was measured with the BRITELITE kit from Perkin-Elmer and luminescence was measured in a TOPCOUNT NXT from Perkin Elmer.
Antibody ranging from 10 to 0 µg/ml were incubated with 500 pg/ml of the different TGF-β isoforms and TMLEC cells for 24 hours.

human TGF-β2 [2] = molecular target: T2, human TGF-β2; assay: cell-based or functional assay

B2: MTGF-β3-1901/16 (antibody, IgG1, V domains shown)
VH: QVLLQQSGPELVKPGASVKISCKASGYAFSSSWIHWVKQRPGKGLEWIGRIYPGDGDTNYTGKFKGKATLTADKSSSTAYMQLSSLTSEDSAVYFCARRMITTQAAMDYWGQGTSVTVSS
VL: SFVMTQTPKFLLVSAGDRVTITCKASQSVINAVAWYQQKPGQSPKLLIYYASNRYTGVPDRFTGNGYGTDFTFTISTVQAEDLAVYFCQQDYSSPYTFGGGTKLEIK
IC 50 (ng/ml), TMLEC PAI-1 promoter luciferase assay (human TGF-β3): 25 ng/mL

B3: MTGF-β3-1679/2 (antibody, IgG2a, V domains shown)
VH: B2 VH
VL: B2 VL
IC 50 (ng/ml), TMLEC PAI-1 promoter luciferase assay (human TGF-β3): 6 ng/mL

B5: MTGF-β3-1719/13 (antibody, IgG2a, V domains shown)
VH: QVQLQQPGAELVKPGASVKMSCKASGYIFTSYWITWVKQRPGQGLEWIGDIFPGTGSTNYNEKFKTKASLTVDTSSSTANMQLSSLTSEDSAVYSCARKLGPNYAVDYWGQGTSVTVSS
VL: DVVMTQTPLSLPVSLGDQASISCRSSQSLIHSHGNTYLHWYLQKPGQSPKLLIYKLSNRFSGVPDRFSGSGSGTDFTLKISRVEAEDLGVYFCSQSTHVPFTFGSGTKLEIK
notes: also called TGF-ß3-17
IC 50 (ng/ml), TMLEC PAI-1 promoter luciferase assay (human TGF-β1): 263 ng/mL
IC 50 (ng/ml), TMLEC PAI-1 promoter luciferase assay (human TGF-β3): 79 ng/mL
binding result (human TGF-β2 [1]): binds

Next, values leading:

IC 50 (ng/ml), TMLEC PAI-1 promoter luciferase assay (human TGF-β3): 54 ng/mL
B1: MTGF-β3-1203/11 (antibody, IgG2b, V domains shown)
VH: QVQLKQSGAELVKPGASVKISCKASGYTFTDYYINWVKQRPGQGLEWIGKIGPGTGRTYYNEKFKGKATLTADKSSSTAYMQLSSLTSEDSAVYFCAIYYGWGYAMDYWGQGTSVTVSS
VL: DIVMTQSPSSLSVSAGEKVTMSCKSSQSLLNSGNQKNYLAWYQQKSGQPPKLLIYGASTRESGVPDRFTGSGSGTDFTLTISSVQAEDLAVYYCQNDHGFPLTFGAGTKLELK

IC 50 (ng/ml), TMLEC PAI-1 promoter luciferase assay (human TGF-β3): 13 ng/mL
B4: MTGF-β3-9/8 (antibody, IgG2a, V domains shown)
VH: B2 VH with I34M, Y52F, N59I, T61N, K63N
VL: B2 VL with F2I, A32D

IC 50 (ng/ml), TMLEC PAI-1 promoter luciferase assay (human TGF-β2 [2]): 53.7 ng/mL
IC 50 (ng/ml), TMLEC PAI-1 promoter luciferase assay (human TGF-β1): 72 ng/mL
IC 50 (ng/ml), TMLEC PAI-1 promoter luciferase assay (human TGF-β3): 6.5 ng/mL
B6: 1D11 mouse monoclonal anti-TGF-ß antibody (antibody, from another filing, V domains shown)
VH: QVQLQQSGPELVRPGASVKLSCKASGYIFITYWMNWVKQRPGQGLEWIGQIFPASGSTNYNEMFEGKATLTVDTSSSTAYMQLSSLTSEDSAVYYCARGDGNYALDAMDYWGQGTSVTVSS
VL: DIVLTQSPASLAVSLGQRATISCRASESVDSYGNSFMHWYQQKSGQPPKLLIYLASNLESGVPARFSGSGSRTDFTLTIDPVEADDAATYYCQQNNEDPLTFGAGTKLEIK
